Measurements published in the nanobody polyreactivity screen of Harvey et al. (2022).

Experiment: yeast display, Sf9 membrane polyspecificity reagent, FACS + sequencing; frameworks hold sequencing errors
How it was run: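 Synthetic nanobody libraries on Saccharomyces cerevisiae BJ5465 were galactose-induced for 36–48 hours, stained 1 hour at 4 °C with 10% biotinylated, detergent-solubilized Sf9 membrane reagent and enriched on streptavidin microbeads. FACS then separated cells into low and high (top ~1%) gates by anti-HA (expression) and streptavidin (reagent binding) fluorescence. Genes were colony-PCR amplified, MiSeq 2 × 250 sequenced and CDR-length filtered. A clone's polyreactivity label is that of its gate of origin.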

Sequence	polyreactivity (PSR sort gate)
QVQLVESGGGLVQAGGSLRLSCAASGRIFLPYAMGWYGQAPGKERELFASISGSGGRTYYADSVKGRFTISRDHANNTVYLQMISQKPEDTAVYYCANRPVYAGYRFNYWGQGTQLTVSS	high polyreactivity
QVQLVESGGGLVQAGGSLRLSCAASGRIFLQYDMGWYRQAPGKERELVAGISSRGGSMYYADSVKGRFTISRDNAKNTVYLQMNSLKPEDTAVYYGAAQTKRIRYVYKHYYWGQGTQVTVSS	high polyreactivity
QVQLVESGGGLVQAGGSLRLSCAASGRIFLRNAMGWYRQAPGKERELVANITSRGGSTYYADSVKGRFTISRDNAKNTVYLQMNSLKPEDTAVYYCAADPRRYRGFGYVYGGFYYWGQGTQVTVSS	low polyreactivity
QVQLVESGGGLVQAGGSLRLSCAASGRIFLRNTMGWYRQAPGTERELVAAITGRGGSTYYADSVKGRFTISRDNAKNTVYLQMNSLIPEDTAVYYCAARSPGYSPPGPVRLSDYWGQGTQVTVSS	high polyreactivity
QVQLVESGGGLVQAGGSLRLSCAASGRIFLRYAMGWYRQAPGKERELVAVITWSGGSTYYADSVKGRFTISRDNAKNTVYLQMNSLKPEDTAVYYCAADWYPTGFYYWGQGTQVTVSS	low polyreactivity
QVQLVESGGGLVQAGGSLRLSCAASGRIFLTYAMGWYRQAPGKERELVAAISGRGGSTYYADSVNGRFTISRDYAKNTVYLQMNSLKPEDTAVYYCAAAKWVIQTGNYYYWGQGTQVTVSS	low polyreactivity
QVQLVESGGGLVQAGGSLRLSCAASGRIFLTYAMGWYRQAPGKERELVAAISTSGTRTYYADSVKGRFTISRDNAKNTVYLQMNSLKPEDTAVYYCAREKYNYRTYEYWGQGTQVTVSS	high polyreactivity
QVQLVESGGGLVQAGGSLRLSCAASGRIFLTYAMGWYRQAPGKERELVAAITDNGGDTYYADSVKGRFTISRDNAKNTVYLQMNSLKPEDTAVYYCAKTTLSVAGLDFDYWGQGTQVTVSS	low polyreactivity
QVQLVESGGGLVQAGGSLRLSCAASGRIFLVNAMGWYRQAPGKEREFVAAITDNTGSTYYADSVKGRFTISRDNAKNTVYLQMNSLKPEDTAVYYCAKQRGNKRIGYDSWGQGTQVTVSS	low polyreactivity
QVQLVESGGGLVQAGGSLRLSCAASGRIFLVYAMGWYRQAPGKERELVATIRSGGRTNYADSVKGRFTISRDNAKNAVYLQMNSLKPEDTAVYYCNAPPYTSSDQDPAGDYEYWGQGTQVTVSS	high polyreactivity
QVQLVESGGGLVQAGGSLRLSCAASGRIFLVYGMGWSRQAPGKERELVASITDRGGSTYYADSVKGRFTISRDNAKNTVYLQMYSLKPEDTAVYYCAADGAFYASTEMDYWGQGTQVTVSS	low polyreactivity
QVQLVESGGGLVQAGGSLRLSCAASGRIFLWNAMGWYRQAPGKERELVAGIRWSTGSTYYADSVKGRFTISRDNAKNTVYLQKNSLKREDTAVYYCNARSFATGSKVPARGYWGQGTQVTVSS	high polyreactivity
QVQLVESGGGLVQAGGSLRLSCAASGRIFLYNDMGWYRQAPGKERELVATITWNVTSTYYADSVKGRFTISRDNAKYTVYLQLNSLKPEDTAVYYCARGDHVGSAGYDYWGQGTQVTVSS	low polyreactivity
QVQLVESGGGLVQAGGSLRLSCAASGRIFLYNGMGWYRQAPGKERELVAGITTGGNTNYADSVKGRFTISRDNAKNTVYLQMNSLKPEDTAVYYCAAEVIVYGWSPDYDYWGQGTQVTVSS	low polyreactivity
QVQLVESGGGLVQAGGSLRLSCAASGRIFLYTAMGWYRQAPGKERELVAAIDGGGTTYADSVKGRFTISRDNAKNTVYLQMNSLKPEDTAVYYCAGDWYYQYSIYRYGYWGQGTQVTVSS	low polyreactivity
QVQLVESGGGLVQAGGSLRLSCAASGRIFLYYAMGWYRQAPGKERELVAAITRSGGTTYYADSVKGRFTISRDNAKNTVYLQMNSLKPEDTAVYYCAALGQYSRADYEYWGQGTQVTVSS	high polyreactivity
QVQLVESGGGLVQAGGSLRLSCAASGRIFLYYAMGWYRQAPGKERELVAGISTGGSTNYADSVKGRFTISRDNAKNTVYLQMNSLKPEDTAVYYCAVVDVEEHVGHWGQGTQVTVSS	low polyreactivity
QVQLVESGGGLVQAGGSLRLSCAASGRIFMPYAMGWYRQARGKERELFAAITSTGGSTYYADSVKGRFTISRDNAKNTVYIQMNSQKPEDTAVYYCNARRGYQPHRRDYWGQGTQVTLSS	low polyreactivity
QVQLVESGGGLVQAGGSLRLSCAASGRIFNANAMGWYRPAPGKESELVAAISSSGGSTYYSDSVKGRFTISRDNAKNTVYLHMNSLKPEDTAVYYCKDEWGWRYSSDFDYWGQGTQVTVSS	low polyreactivity
QVQLVESGGGLVQAGGSLRLSCAASGRIFNAYAMGWYRQAPGKERELVATITGSGGRTHYADSVKGRFTISRDNAKNTVYLQMNSLKPEDTAVYYCAATAQYYHYHLAKYDYWGQGTQVTVSS	low polyreactivity
QVQLVESGGGLVQAGGSLRLSCAASGRIFNHYAMGWYRQAPGKERELVASITSGAGTNYADSVKGRFTISRDNAKNTVYLQMNSLKPEDTAVYYCNADLYDYYYSDGDYWGQGTQVTVSS	high polyreactivity
QVQLVESGGGLVQAGGSLRLSCAASGRIFNLYVMGWYRQAPGKERELVATISSGGSTNYADSVKGRFTISRDNAKNTVYLQMNSLKPEDTAVYYCAAREWRSFDYWGQGTQVTVSS	low polyreactivity

Sequence	polyreactivity (PSR sort gate)
QVQLVESGGGLVQAGGSLRLSCAASGRIFNLYVMGWYRQAPGKERELVATISSGGSTNYADSVKGRFTISRDYAKNTVYLQMNSLKPEDTAVNYCAKPYIVYYTMDYWGQGTQVTVSS	low polyreactivity
QVQLVESGGGLVQAGGSLRLSCAASGRIFNRNAMGWYRQAPGKEREFVAAISRSGGTTYYADSVKGRFTFSRDNAKNTVYLQINSLKPEDTAFYYCNAVRYQTEVDYWGQGTQVTVSS	high polyreactivity
QVQLVESGGGLVQAGGSLRLSCAASGRIFNRNAMGWYRQAPGKERELVAAITGSGGITYYADSVKGRFTISRDNAKNTVYLQMNSLKPEDTAVYYCAARAKFLSLPTYDYWGQGTQVTVSS	high polyreactivity
QVQLVESGGGLVQAGGSLRLSCAASGRIFNRNAMGWYRQPPGKERELVAAISWSGTRTYYADSVKGRFTISRDNAKNTVYLQMNSLKPEDTAVYYCAAGASLYSYYGFLPYDYWGQGTQVTVSS	high polyreactivity
QVQLVESGGGLVQAGGSLRLSCAASGRIFNRYAMGWYRQAPGKERELVAAITSGGSTYYADSVKGRFTISRDNAKNTVYLPMNSLKREDTAFYYCAALPRSNSYGYCGQGTQVTVSS	high polyreactivity
QVQLVESGGGLVQAGGSLRLSCAASGRIFNTYAMGWYRQAPAKERELVAAITSSGGSTYYADSVKGRFTISRDNAKNTVYLQMNSLKPEDTAVYYCNAGSLHRRYYYEGDYWGQGTQVTVSS	high polyreactivity
QVQLVESGGGLVQAGGSLRLSCAASGRIFNWYGMGWYRQAPGKERELVATISSSGDSTYYADSVKGRFTISRDNAKNTVYLQMNSLKPEDTAVFYCAKRARYKFGYWGQGSQVTVSS	high polyreactivity
QVQLVESGGGLVQAGGSLRLSCAASGRIFNYNAIGWYRQAPGKERELVAAITCSGGSTYYADSVKGRFTISRDNAQYNVYLQMNSLKPEDTAVYYCIALITYSSDYWGQGTQVTVSS	low polyreactivity
QVQLVESGGGLVQAGGSLRLSCAASGRIFPAYAMGWYRQAPGKERELVAAITGGGSTNYADSVKGRFTISRDNAKHTVYLQMNSLKPEDTAVYYCNAAVVWPNRQENDYWGQGTQVTVSS	low polyreactivity
QVQLVESGGGLVQAGGSLRLSCAASGRIFPAYAMGWYRQAPGTERELVASIRRGGITYADSVKGRFTISRDNAKNTVYLQMNSLKPEDTAVYYCNADYRGWGYHMDYWGQGTQVTVSS	low polyreactivity
QVQLVESGGGLVQAGGSLRLSCAASGRIFPGNAMGWYRQSPGKERELVAGISFSGGRTYYADSVKGRFSISRDNAKNTVYLQMNSLKPEDTAVYYCATKYQQHWWRYDYWGQGTQVTVSS	low polyreactivity
QVQLVESGGGLVQAGGSLRLSCAASGRIFPGYAMGWYRQAPGKERELVAAISASGGSTYYADSVKGRFTISRDNAKNTVYLQMNSLKPEDTAVYDCNAVYRLIRFDYWGQGTQVTVSS	high polyreactivity
QVQLVESGGGLVQAGGSLRLSCAASGRIFPGYAMGWYRQAPGKQRELVAGISNDASTNYADSVKGRFTISRDNAKNTVYLQMNSLKPEDTAVFYCAAEISYLSVPRYDYWGQGTQVTVSS	low polyreactivity
QVQLVESGGGLVQAGGSLRLSCAASGRIFPHNAMGWYRQAPGKERELVAAIRFSGGNTYYADSVKGRFTISRDNAKNTVYLQLNSLKPEDTAVYYCFVYGYVPYNYWGQGTQVTVSS	low polyreactivity
QVQLVESGGGLVQAGGSLRLSCAASGRIFPKYAMGWYRQAPGKERELVAAISSSGGSTYYADSVKGRFTISRDNAKNTVYLQMNSLKPEDTAVYYCAAEQYSYGYTIYEYWGQGTQVTVSS	high polyreactivity
QVQLVESGGGLVQAGGSLRLSCAASGRIFPLNAMGWYRQAPGKERELVAAIRNGGRTNYADSVKGRFTISPDNAKNTVYVQMNSLKPEDTAVYYCSFTLSSVLQYDSWGQGTQVTVSS	low polyreactivity
QVQLVESGGGLVQAGGSLRLSCAASGRIFPLYAMGWYRQAPGKERELGAAISSGGTTYYADSVKGRFTISRDNAKNTVYLQMNSLKPEDTAVYYCARRPAQRWGRFDYWGQGTQVTVSS	low polyreactivity
QVQLVESGGGLVQAGGSLRLSCAASGRIFPSYTMGWYRQAPGKERELVAGITKSGSSTYYADSVKGRFTISRDNAKNTVYLQMNSLKPEDTAVYYCAAVYGNPSYRYGYWGQGTQVTVSS	high polyreactivity
QVQLVESGGGLVQAGGSLRLSCAASGRIFPTNAMGWYRQAPGKERELVASIDSGGSTKYADSVKGRFTISRDNAKNTVYLLMNSLKPEDTAVYYRALQVLNYDYWGQGTQVTVSS	low polyreactivity
QVQLVESGGGLVQAGGSLRLSCAASGRIFPTYAMGWYRQAPGKERELVAGITSGGRTNYADSVKGRFTISRDNAKNTVYLQMNSLKPEDTAVYYCATVSQQSRSLGIDRIYYWGQGTQVTVSS	high polyreactivity
QVQLVESGGGLVQAGGSLRLSCAASGRIFPVNAMGCYRQAPGKEREFVSAIRGTGTSTYYADSVKGRFTISRDNAKNTVYLQMNSLKPEDTAVYYCAARGYVQYQGQNVNTFDYWGQGTQVTVSS	low polyreactivity
